In article PMC4640833, “Identification of a Novel Di-D-Fructofuranose 1,2’:2,3’ Dianhydride (DFA III) Hydrolysis Enzyme from Arthrobacter aurescens SK8.001” (PLoS ONE, 2015):

Assays:
[1] = target: DFA III hydrolysis enzyme (DFA IIIase) from Arthrobacter aurescens SK8.001 (Arthrobacter aurescens SK8.001); test: SEC; gel filtration by HPLC, TSK G2000SWxl column, 0.1 M phosphate buffer pH 6.7 with 0.05% NaN3 and 0.1 M Na2SO4, 1 mL/min, UV 280 nm; native mass about 145 kDa against 49 kDa subunit by SDS-PAGE; mass markers for calibration
[2] = substrate: OC[C@H]1O[C@@]2(CO[C@]3(CO)O[C@H](CO)[C@@H](O)[C@@H]3O2)[C@@H](O)[C@@H]1O; test: HPLC (refractive index) of inulobiose produced, nonlinear Michaelis-Menten fit; format: biochemical, Paenarthrobacter aurescens; conditions: 50 mM citrate buffer pH 5.5, 55°C, 10 min, DFA III 2.0-50 mM

Molecule	stoichiometry N [1]	Km [2]
DFA III hydrolysis enzyme (DFA IIIase) from Arthrobacter aurescens SK8.001	3	
AaDFA IIIase (Paenarthrobacter aurescens) (protein, full length 470 residues (49,879 Da), no signal peptide, C-terminal 6xHis tag kept, pET-22b(+) in E. coli BL21(DE3), homotrimer 145 kDa) MSNSNYYNVTAWPIGDPFTGVGEVINSIIADIKDRQTATDENDGGKPGAVIYLPPGDYRLRTQVVIDVSFLRIEGSGHGFTSSSIRFNAPEAEWPDLHELWPGGSRVMVDLPIIDDERPSDLLPDQESKGAAFYVERSGSPRISSVEFSNFCIDGLHFTPDGSGLPAENSYVNGKTGIYVASANDSFRVNGMGFVYLENALTICKADALSVHDNFIAECGSCIELRGWGQASKITDNLIGAGFKGHSIYAQNHGGLLITANNIFPRGASSIHFEGVTRSSVSNNRLHSFYPGMVVLAEGSSENLVSTNHFLRDHEPWTPFLGVDNGRDDLYGILRISGSNNSVIGNHFSEVVDAQSIWPSGATPVIIRLAEGTGNFVSNNHVVAMDVRSASSDSCFAAQVDALLTTGASDGLAVTAVLVDSTSARNTILDSGNDAQVIADRGANAVRATPTVGFAAAESTQSSQGAGIPR		30.7 ± 4.3 mM
